In test [1] the target is Mt-Lig expressed in yeast as amino-terminal Myc epitope-NLS fusion protein (pNLS16) (Mycobacterium tuberculosis) (UniProt P9WNV3). The test is described as follows: cell-based or functional assay.
Test [2] addresses Mt-Lig (Mycobacterium tuberculosis ATP-dependent ligase, ORF Rv0938), recombinant histidine-tagged (Mycobacterium tuberculosis, UniProt P9WNV3 1-759). The experiment in a line: cell-based or functional assay.

A value given as a limit tells only on which side of the number the result lay.

Consider 2 molecules from patent publication US20110318789A1 (CAMBRIDGE ENTERPRISE, published 2011).

Sequence of Mt-Lig (Mycobacterium tuberculosis ATP-dependent ligase, ORF Rv0938), recombinant histidine-tagged (P9WNV3 whole entry): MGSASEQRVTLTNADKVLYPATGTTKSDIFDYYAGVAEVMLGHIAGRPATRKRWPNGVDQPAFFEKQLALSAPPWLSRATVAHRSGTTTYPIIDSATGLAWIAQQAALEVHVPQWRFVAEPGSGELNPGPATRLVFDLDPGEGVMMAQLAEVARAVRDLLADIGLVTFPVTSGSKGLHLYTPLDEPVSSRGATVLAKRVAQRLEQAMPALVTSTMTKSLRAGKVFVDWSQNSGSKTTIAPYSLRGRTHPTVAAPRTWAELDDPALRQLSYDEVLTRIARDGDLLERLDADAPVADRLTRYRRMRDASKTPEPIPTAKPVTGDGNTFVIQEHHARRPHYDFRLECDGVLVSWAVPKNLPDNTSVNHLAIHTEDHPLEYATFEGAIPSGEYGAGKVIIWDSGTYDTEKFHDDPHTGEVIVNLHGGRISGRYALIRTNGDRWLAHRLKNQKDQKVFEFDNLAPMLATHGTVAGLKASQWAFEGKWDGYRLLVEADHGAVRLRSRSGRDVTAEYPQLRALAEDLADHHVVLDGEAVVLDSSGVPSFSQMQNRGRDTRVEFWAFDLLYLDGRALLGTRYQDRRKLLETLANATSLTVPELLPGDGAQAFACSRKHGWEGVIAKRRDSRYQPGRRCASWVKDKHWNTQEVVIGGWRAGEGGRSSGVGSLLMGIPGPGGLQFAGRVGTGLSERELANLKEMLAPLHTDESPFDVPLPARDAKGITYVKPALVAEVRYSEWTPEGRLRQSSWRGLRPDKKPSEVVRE
Sequence of Mt-Lig expressed in yeast as amino-terminal Myc epitope-NLS fusion protein (pNLS16) (Mycobacterium tuberculosis) (P9WNV3 whole entry, the tested form may be a part): as the sequence (P9WNV3 whole entry) above

Consider “Mt-Ku expressed in yeast as amino-terminal Myc epitope-NLS fusion protein (pNLS15) (from UniProt P9WKD8 1-273)”, for which the NHEJ frequency in yku70 mutant yeast (suicide deletion assay) (% of the wild-type yeast level) in test [1] worked out at 50.

B1: Mt-Ku (Mycobacterium tuberculosis Ku-like protein, ORF Rv0937c), recombinant histidine-tagged (other)
chain: MRAIWTGSIAFGLVNVPVKVYSATADHDIRFHQVHAKDNGRIRYKRVCEACGEVVDYRDLARAYESGDGQMVAITDDDIASLPEERSREIEVLEFVPAADVDPMMFDRSYFLEPDSKSSKSYVLLAKTLAETDRMAIVHFTLRNKTRLAALRVKDFGKREVMMVHTLLWPDEIRDPDFPVLDQKVEIKPAELKMAGQVVDSMADDFNPDRYHDTYQEQLQELIDTKLEGGQAFTAEDQPRLLDEPEDVSDLLAKLEASVKARSKANSNVPTPP
Turning to B1, in test [2], the “DNA ligation activity of Mt-Lig on dsDNA fragments upon addition of Mt-Ku” value was > 30 fold and the “activity of Mt-Lig in an in vitro plasmid repair assay” value was 20 fold.
